Read-outs that look alike come from different tables or passages of the source.
Assays:
[1] = biological target: T1, human CD3 on T-cell lines (CD3-expressing Jurkat cells; HUT78 cells) (human, UniProt P07766 23-207); assay: flow cytometry, HUT78 cells
T1 construct: On cells it stands in the CD3/TCR complex

[2] = biological target: T1, human CD3 on T-cell lines …; assay: flow cytometry, HUT78 cells; remark: listed apart in the source
[3] = biological target: T1, human CD3 on T-cell lines …; assay: flow cytometry, HUT78 cells; remark: listed apart in the source
[4] = biological target: T2, human CD3 epsilon (Acro Cat #CDE-H5223) (human, UniProt P07766 23-126); assay: SPR (Biacore), antibody captured, human CD3 epsilon analyte
T2 construct: Bought recombinant protein; also called rhCD3E

[5] = biological target: T2, human CD3 epsilon (Acro Cat #CDE-H5223); assay: as above; remark: listed apart in the source
Procedure: Anti-Fab or anti-Fc polyclonal antibodies were immobilized onto a CM5 chip (GE Life Sciences) using amine coupling chemistry (from Amine Coupling Kit, GE Life Sciences). The immobilization steps were carried out at a flow rate of 25 μl/min in 1×HBS-EP+ buffer (GE Life Sciences; 10× Stock diluted before use). The sensor surfaces were activated for 7 min with a mixture of NHS (0.05 M) and EDC (0.2 M). The Anti-Fab or Anti-Fc antibodies were injected over all 4 flow cells at a concentration of 25 μg/mL in 10 mM sodium acetate, pH 4.5, for 7 min. Ethanolamine (1 M, pH 8.5) was injected for 7 min to block any remaining activated groups.
Off-rate and kinetic binding experiments were performed at 25° C. using 1×HBS-EP+ buffer. Test and control antibodies were injected over the anti-Fab or anti-Fc surface at concentrations of 5-10 μg/mL for 12 seconds at a flow rate of 10 μL/min on flow cells 2, 3 and 4, followed by a buffer wash for 30 seconds at the same flow rate. […] After capturing ligand (antibody) on the anti-Fc or anti-Fab surface, the analyte (human CD3 epsilon, Acro Cat #CDE-H5223) was bound for 180 seconds, followed by a 600 second dissociation phase at a flow rate of 50 μL/min. Between each ligand capture and analyte binding cycle, regeneration was carried out using two injections of 10 mM Glycine pH 2.0 for 30 seconds at 30 μL/min, followed by a 30 second buffer wash step.
The data was fit with the Biacore T200 Evaluation software, using a 1-1 Langmuir binding model. KD (affinity, nM) was determined as a ratio of the kinetic rate constants calculated from the fits of the association and dissociation phases.

[6] = biological target: T2, human CD3 epsilon (Acro Cat #CDE-H5223); assay: as above; remark: listed apart in the source
cynomolgus CD3 epsilon [7] = biological target: T3, cynomolgus CD3 epsilon (cynomolgus monkey, UniProt Q95LI5 22-117, limits assumed); assay: SPR (Biacore), antibody captured, cynomolgus CD3 epsilon analyte
T3 construct: Recombinant protein; also called cyno CD3E
T3 sequence: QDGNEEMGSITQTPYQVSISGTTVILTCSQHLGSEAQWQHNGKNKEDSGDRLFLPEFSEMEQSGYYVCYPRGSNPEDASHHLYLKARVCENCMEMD

cynomolgus CD3 epsilon [8] = biological target: T3, cynomolgus CD3 epsilon; assay: as above; remark: listed apart in the source
[9] = biological target: T1, human CD3 on T-cell lines …; assay: flow cytometry; signal on CD3+ Jurkat over CD3- Jurkat RT3-T3.5 cells
Procedure: A high-throughput primary screen was performed to rapidly assess cell binding of antibodies produced in small-scale (60 μL) cell-free reactions. In this screen, four components are combined in equal volumes to a final volume of 100 μL/well in a U-bottom 96-well plate (Greiner Cat #650201) or flat bottom 384 well plate (Greiner Cat #781201). […] Plates are then incubated on ice for one hour. Cells are pelleted by spinning at 1500×g for 5 minutes and resuspended in assay buffer. High-throughput flow cytometry is then performed on resuspended cells on a FACS instrument (BD Biosciences FACS Canto II or BD Biosciences LSR II) and data is analyzed with FlowJo software. Antibody binding is assessed by the proportional level of secondary antibody signal (presumably due to binding to our antibody of interest) on Jurkat CD3-positive cells compared to the signal on Jurkat RT3.T3.5 CD3-negative cells.

[10] = biological target: T2, human CD3 epsilon (Acro Cat #CDE-H5223); assay: ELISA, coated antigen
cynomolgus CD3 epsilon [11] = biological target: T3, cynomolgus CD3 epsilon; assay: ELISA, coated antigen
CD3-GE = assay: ELISA, coated antigen

T1 sequence (P07766 23-207 limits assumed): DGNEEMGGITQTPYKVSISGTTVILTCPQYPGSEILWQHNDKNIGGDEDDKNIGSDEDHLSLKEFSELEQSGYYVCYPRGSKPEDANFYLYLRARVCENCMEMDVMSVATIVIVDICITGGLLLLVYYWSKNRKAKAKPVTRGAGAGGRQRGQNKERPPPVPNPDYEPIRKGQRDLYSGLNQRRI
T2 sequence (P07766 23-126 limits assumed): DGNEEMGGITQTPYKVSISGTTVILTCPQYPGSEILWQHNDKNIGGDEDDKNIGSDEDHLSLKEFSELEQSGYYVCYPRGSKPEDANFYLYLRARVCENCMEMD

B1: SRP2037-B10 (antibody, V domains shown)
VH: not shown
VL: QTVVTQEPSLTVSPGGTVTLTCGSSTGAVTSGYYPNWLQQKPGQAPRGLIGGTKFLAPGTPARFSGSLLGGKAALTLSGVQPEDEAEYYCALWYSNRWVFGGGTQLTVTG
notes: human IgG1, lambda; also called 2037-B10 WT; 2037-B10 wt LC (lambda)
[1]
  Bmax (MFI): 1040 MFI
  Kd: 0.15 nM
[2]
  Bmax (MFI): 1030 MFI
  Kd: 0.4 nM
[3]
  HUT78 Bmax: 1890
  Kd: 2.33 nM
[4]
  Kd: 0.465 nM
  koff: 0.000222 s⁻¹
  kon: 478000 M⁻¹ s⁻¹
[5]
  Kd: 0.596 nM
  koff: 0.000306 s⁻¹
  kon: 514000 M⁻¹ s⁻¹
[6]
  Kd: 2.2 nM
  koff: 0.000564 s⁻¹
  kon: 256000 M⁻¹ s⁻¹
Cynomolgus CD3 epsilon [7]
  Kd: 0.416 nM
  koff: 0.000368 s⁻¹
  kon: 884000 M⁻¹ s⁻¹
Cynomolgus CD3 epsilon [8]
  Kd: 0.418 nM
  koff: 0.000344 s⁻¹
  kon: 824000 M⁻¹ s⁻¹

B2: SMP1913-F04 (antibody, V domains shown)
VH: not shown
VL: QTVVTQEPSLTVSPGGTVTLTCGSSTGAVTSGYYPNWFQQKPGQAPRGLIGGTKFLAPGTPARFSGSLLGGKAALTLSGVQPEDEAEYYCALWYSNRWVFGGGTQLTVTG
notes: human IgG1, lambda; also called SP34-Hc + SP34-Lc3
[9]
  FACS S/N (Jurkat/Jurkat RT3-T3.5 binding): 5.1

B3: SMP1913-G05 (antibody, human IgG1, lambda, V domains shown)
VH: EVQLVESGGGLVQPGRSLRLSCTASGFTFNKYAMNWFRQAPGKGLEWVARIRSKYNNYATYYADSVKDRFTISRDDSKSIAYLQMNSLKTEDTAVYYCVRHGNFGNSYISYWAYWGQGTLVTVSS
VL: not shown
notes: human IgG1, lambda; also called hSP34-Hc3 + SP34-Lc
[9]
  FACS S/N (Jurkat/Jurkat RT3-T3.5 binding): 0.8

B4: SMP1913-H02 (antibody, V domains shown)
VH: not shown
VL: QTVVTQEPSLTVSPGGTVTLTCGSSTGAVTSGYYPNWFQQKPGQAPRGLIGGTKFLAPGTPARFSGSLLGGKAALTLSGVQPEDEAEYYCALWYSNRWVFGGGTQLTVTG
notes: human IgG1, lambda; also called hSP34-Hc4 + SP34-Lc3
[9]
  FACS S/N (Jurkat/Jurkat RT3-T3.5 binding): 1

B5: SMP1913-G08 (antibody, human IgG1, lambda, V domains shown)
VH: EVQLVESGGGLVQPGRSLRLSCTASGFTFNKYAMNWFRQAPGKGLEWVARIRSKYNNYATYYADSVKDRFTISRDDSKSIAYLQMNSLKTEDTAVYYCVRHGNFGNSYISYWAYWGQGTLVTVSS
VL: QTVVTQEPSLTVSPGGTVTLTCGSSTGAVTSGYYPNWFQQKPGQAPRGLIGGTKFLAPGTPARFSGSLLGGKAALTLSGVQPEDEAEYYCALWYSNRWVFGGGTQLTVTG
notes: human IgG1, lambda; also called hSP34-Hc3 + SP34-Lc3
[9]
  FACS S/N (Jurkat/Jurkat RT3-T3.5 binding): 1

B6: SMP1913-F10 (antibody, V domains shown)
VH: not shown
VL: QTVVTQEPSFSVSPGGTVTLTCGSSTGAVTSGYYPNWYQQTPGQAPRGLIGGTKFLAPGVPDRFSGSLLGNKAALTITGAQADDESDYYCALWYSNRWVFGGGTQLTVTG
notes: human IgG1, lambda; also called hSP34-Hc1 + SP34-Lc4
[9]
  FACS S/N (Jurkat/Jurkat RT3-T3.5 binding): 1

B7: SMP1913-G04 (antibody, human IgG1, lambda, V domains shown)
VH: EVQLLESGGGLVQPGGSLRLSCAASGFTFNKYAMNWVRQAPGKGLEWVARIRSKYNNYATYYADSVKDRFTISRDDSKNTAYLQMNSLRAEDTAVYYCVRHGNFGNSYISYWAYWGQGTLVTVSS
VL: QTVVTQEPSFSVSPGGTVTLTCGSSTGAVTSGYYPNWYQQTPGQAPRGLIGGTKFLAPGVPDRFSGSLLGNKAALTITGAQADDESDYYCALWYSNRWVFGGGTQLTVTG
notes: human IgG1, lambda; also called hSP34-Hc2 + SP34-Lc4
[9]
  FACS S/N (Jurkat/Jurkat RT3-T3.5 binding): 1

B8: SMP1913-F05 (antibody, V domains shown)
VH: not shown
VL: QTVVTQEPSFSVSPGGTVTLTCGSSTGAVTSGYYPNWYQQTPGQAPRGLIGGTKFLAPGVPDRFSGSLLGNKAALTITGAQADDESDYYCALWYSNRWVFGGGTQLTVTG
notes: human IgG1, lambda; also called SP34-Hc + SP34-Lc4
[9]
  FACS S/N (Jurkat/Jurkat RT3-T3.5 binding): 0.9

B9: SMP1913-F03 (antibody, V domains shown)
VH: not shown
VL: QSAVTQPRSVSGSPGQSVTISCGSSTGAVTSGYYPNWYQQHPGKAPKGMIGGTKFLAPGVPDRFSGSLLGNTASLTISGLQAEDEADYYCALWYSNRWVFGGGTQLTVTG
notes: human IgG1, lambda; also called SP34-Hc + SP34-Lc2
[9]
  FACS S/N (Jurkat/Jurkat RT3-T3.5 binding): 1

B10: SMP1913-F08 (antibody, V domains shown)
VH: not shown
VL: QSAVTQPRSVSGSPGQSVTISCGSSTGAVTSGYYPNWYQQHPGKAPKGMIGGTKFLAPGVPDRFSGSLLGNTASLTISGLQAEDEADYYCALWYSNRWVFGGGTQLTVTG
notes: human IgG1, lambda; also called hSP34-Hc1 + SP34-Lc2
[9]
  FACS S/N (Jurkat/Jurkat RT3-T3.5 binding): 0.9

B11: Mouse SP34 (antibody, V domains shown)
VH: EVQLVESGGGLVQPKGSLKLSCAASGFTFNTYAMNWVRQAPGKGLEWVARIRSKYNNYATYYADSVKDRFTISRDDSQSILYLQMNNLKTEDTAMYYCVRHGNFGNSYVSWFAYWGQGTLVTVSA
VL: QAVVTQESALTTSPGETVTLTCRSSTGAVTTSNYANWVQEKPDHLFTGLIGGTNKRAPGVPARFSGSLIGDKAALTITGAQTEDEAIYFCALWYSNLWVFGGGTKLTVL
notes: also called SP34 mouse monoclonal antibody; MSP34
[10]
  EC50: 251 nM
  ELISA Bmax (RLU): 123000 RLU
Cynomolgus CD3 epsilon [11]
  EC50: 352 nM
  ELISA Bmax (RLU): 116000 RLU
CD3-GE
  EC50: 574 nM
  ELISA Bmax (RLU): 3610 RLU

B12: SMP1913-F02 (antibody, V domains shown)
VH: not shown
VL: EIVVTQSPGTLSLSPGERATLSCGSSTGAVTSGYYPNWYQQKPGQAPRGLIGGTKFLAPGIPDRFSGSLLGTDATLTISRLEPEDFAVYYCALWYSNRWVFGQGTKLEIKR
notes: human IgG1, kappa; also called SP34-Hc + SP34-Lc1
[9]
  FACS S/N (Jurkat/Jurkat RT3-T3.5 binding): 0.9

B13: SMP1913-F07 (antibody, V domains shown)
VH: not shown
VL: EIVVTQSPGTLSLSPGERATLSCGSSTGAVTSGYYPNWYQQKPGQAPRGLIGGTKFLAPGIPDRFSGSLLGTDATLTISRLEPEDFAVYYCALWYSNRWVFGQGTKLEIKR
notes: human IgG1, kappa; also called hSP34-Hc1 + SP34-Lc1
[9]
  FACS S/N (Jurkat/Jurkat RT3-T3.5 binding): 0.8

B14: 2037-B10-Lc6 (antibody)
heavy: not shown
light: DIQMTQSPSSLSASVGDRVTITCGSSTGAVTSGYYPNWLQQKPGQAPRGLIGGTKFLAPGVPSRFSGSLSGGKATLTISSLQPEDFATYYCALWYSNRWVFGGGTKVEIKRTVAAPSVFIFPPSDEQLKSGTASVVCLLNNFYPREAKVQWKVDNALQSGNSQESVTEQDSKDSTYSLSSTLTLSKADYEKHKVYACEVTHQGLSSPVTKSFNRGEC
notes: human IgG1, kappa; also called Kappa Lc6; Parent HC + Kappa Lc6
[2]
  Bmax (MFI): 1320 MFI
  Kd: 0.8 nM
[3]
  HUT78 Bmax: 1780
  Kd: 1.6 nM
[5]
  Kd: 0.648 nM
  koff: 0.000278 s⁻¹
  kon: 430000 M⁻¹ s⁻¹
[6]
  Kd: 1.96 nM
  koff: 0.000479 s⁻¹
  kon: 244000 M⁻¹ s⁻¹
Cynomolgus CD3 epsilon [7]
  Kd: 0.413 nM
  koff: 0.000311 s⁻¹
  kon: 753000 M⁻¹ s⁻¹
Cynomolgus CD3 epsilon [8]
  Kd: 0.56 nM
  koff: 0.000375 s⁻¹
  kon: 670000 M⁻¹ s⁻¹

Source: patent US20240124585A1 (SUTRO BIOPHARMA, published 2024)
